From patent publication US20210063414A1, “METHODS FOR PREVENTING AND/OR TREATING BONE LOSS CONDITIONS BY MODULATING IRISIN” (Dana-Farber Cancer Institute, Inc., priority 2018, published 2021)

Assays:
[1] = target: T1, MLO-Y4 cell surface proteins (Mus musculus, UniProt G3X9C2); test: Crosslinking/co-immunoprecipitation/mass spectrometry (TMT quantitative proteomics) to identify irisin receptors; type: binding; details: co-precipitated protein Nccrp1 (FBX50_MOUSE)
T1 construct: endogenous in cells; host or cells: MLO-Y4
T1 sequence (G3X9C2 1-266): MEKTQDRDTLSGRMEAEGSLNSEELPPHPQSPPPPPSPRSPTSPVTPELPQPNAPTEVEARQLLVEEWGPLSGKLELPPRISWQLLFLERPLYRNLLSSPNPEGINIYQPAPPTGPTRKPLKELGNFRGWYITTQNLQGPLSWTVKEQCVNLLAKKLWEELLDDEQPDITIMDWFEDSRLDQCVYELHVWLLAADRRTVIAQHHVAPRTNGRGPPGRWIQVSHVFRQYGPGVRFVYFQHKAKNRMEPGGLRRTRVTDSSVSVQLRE
Summary of the method: (§1)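 Mouse MLO-Y4 cells were switched to serum-free FreeStyle medium for 4 h, chilled, then exposed to 10 nM His-tagged irisin (or adipsin as control) for 20 min. Cells were crosslinked with 1.5 mM DTSSP (30 min, ice), and bound proteins were pulled down on Ni-NTA and eluted with 250 mM imidazole. Eluates were separated by SDS-PAGE, trypsin-digested in gel, TMT 6-plex labelled and quantified by MS3-based LC-MS/MS on an Orbitrap Fusion Lumos.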

[2] = target: T2, MLO-Y4 cell surface proteins (Mus musculus, UniProt Q3U2P1); test: as above; type: binding; details: co-precipitated protein Sec24a (SC24A_MOUSE)
T2 construct: endogenous in cells; host or cells: MLO-Y4
T2 sequence (Q3U2P1 1-1090): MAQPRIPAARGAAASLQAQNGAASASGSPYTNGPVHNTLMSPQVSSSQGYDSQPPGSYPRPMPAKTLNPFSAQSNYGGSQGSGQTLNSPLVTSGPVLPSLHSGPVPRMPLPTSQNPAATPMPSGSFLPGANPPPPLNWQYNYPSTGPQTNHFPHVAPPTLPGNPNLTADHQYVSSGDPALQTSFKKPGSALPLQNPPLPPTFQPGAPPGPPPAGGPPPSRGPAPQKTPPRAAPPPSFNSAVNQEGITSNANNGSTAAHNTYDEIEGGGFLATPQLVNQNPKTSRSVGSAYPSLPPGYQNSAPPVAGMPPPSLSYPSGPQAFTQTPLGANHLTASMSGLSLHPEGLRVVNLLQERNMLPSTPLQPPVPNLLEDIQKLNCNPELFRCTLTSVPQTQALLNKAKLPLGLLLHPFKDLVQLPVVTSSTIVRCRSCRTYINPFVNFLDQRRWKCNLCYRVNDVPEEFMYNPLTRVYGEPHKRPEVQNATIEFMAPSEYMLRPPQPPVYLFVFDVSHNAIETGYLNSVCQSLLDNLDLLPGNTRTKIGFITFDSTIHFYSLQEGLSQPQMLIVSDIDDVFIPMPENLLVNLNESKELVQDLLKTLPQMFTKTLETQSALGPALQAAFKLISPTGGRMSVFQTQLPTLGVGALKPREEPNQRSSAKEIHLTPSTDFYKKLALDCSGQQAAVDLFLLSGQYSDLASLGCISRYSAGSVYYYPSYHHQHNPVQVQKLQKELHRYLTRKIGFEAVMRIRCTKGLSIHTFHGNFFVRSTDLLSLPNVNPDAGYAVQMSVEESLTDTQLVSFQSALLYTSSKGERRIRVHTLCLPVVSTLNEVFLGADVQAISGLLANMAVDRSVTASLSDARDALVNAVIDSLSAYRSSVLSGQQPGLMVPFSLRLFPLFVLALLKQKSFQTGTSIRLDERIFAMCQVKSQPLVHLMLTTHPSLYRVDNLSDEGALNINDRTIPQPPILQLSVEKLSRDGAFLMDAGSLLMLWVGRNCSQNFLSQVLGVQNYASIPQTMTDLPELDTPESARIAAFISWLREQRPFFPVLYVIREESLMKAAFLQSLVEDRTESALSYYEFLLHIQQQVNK
Summary of the method: as §1

B1: irisin: secreted cleaved form of FNDC5; recombinant human/mouse irisin with C-terminal his tag produced in HEK293 cells (protein)
chain: DSPSAPVNVTVRHLKANSAVVSWDVLEDEVVIGFAISQQKKDVRMLRFIQEVNTTTRSCALWDLEEDTEYIVHVQAISIQGQSPASEPVLFKTPREAEKMASKNKDEVTMKE
modifications: left off: small tags and cut ends
notes: secreted cleaved form of FNDC5; recombinant human/mouse irisin with C-terminal his tag produced in HEK293 cells
TMT signal-to-noise ratio [1]: 0 | irisin/adipsin TMT signal-to-noise ratio [1]: 0.000 | TMT signal-to-noise ratio [2]: 29.3088 | irisin/adipsin TMT signal-to-noise ratio [2]: 0.246
